Assay results published in US20160311908A1 (MERRIMACK PHARMACEUTICALS, published 2016).

Molecular target: murine EGFR (murine, UniProt Q01279 25-647, limits assumed)
Assay: not described (statement in the xenograft methods)

binding result: no binding
B1: P3X (antibody, V domains shown)
VH: QVQLVQSGAEVKKPGASVKVSCKASGYAFTSYGINWVRQAPGQGLEWMGWISAYNGNTYYAQKLRGRVTMTTDTSTSTAYMELRSLRSDDTAVYYCARDLGGYGSGSVPFDPWGQGTLVTVSS
VL: EIVMTQSPATLSVSPGERATLSCRASQSVSSNLAWYQQKPGQAPRLLIYGASTRATGIPARFSGSGSGTEFTLTISSLQSEDFAVYYCQDYRTWPRRVFGGGTKVEIK
notes: Fully human monoclonal antibody; Alexa Fluor 488-labelled in flow cytometry; also called P3X monoclonal antibody; third monoclonal antibody
